Results as given in publication PMC7531860.

Biological target: CfaE, tip-localized minor adhesive subunit of CFA/I fimbriae (enterotoxigenic Escherichia coli) (UniProt P25734)
Assay: […], fluorescence at 320 nm; […]

mtCfaA (CfaA variant with the triple residue substitution T112I/L114I/V116I on the G1 strand) (natural protein)
mid-point dissociation concentration of GdnCl: 0.966 M
